According to patent US20260055205A1 (published 2026):
Where a chain is given by its changes, count along the chain named. Numbers in names are those of the source.

B1: CD3.68 (bispecific antibody, V domains shown)
VH: EVQLLESGGGIVQPGGSLKLSCAASGFTFNTYAMNWVRQAPGKGLEWVARIRSPYNNYATYYADSVKDRFTISRDDSKNTVYLQMNNLKTEDTAVYYCVRHENFGNSYVSWFAHWGQGTLVTVSS
VL: ELVVTQEPSLTVSPGGTVTLTCRSSNGAVTSSNYANWVQQKPGQAPRGLIGGTNKRAPGTPARFSGSLLGGKAALTLSGVQPEDEAVYYCALWYPNLWVFGGGTKLTVL
notes: paTCE with PSMA.5; also called AC3397; K52bP
B2: CD3.85 (bispecific antibody, V domains shown)
VH: B1 VH with P54K, Y61D
VL: B1 VL
notes: paTCE with PSMA.5; also called AC3414; Y58D
B3: CD3.84 (bispecific antibody, V domains shown)
VH: B1 VH with P54K, A59T
VL: B1 VL
notes: paTCE with PSMA.5; also called AC3413; A56T
B4: CD3.83 (bispecific antibody, V domains shown)
VH: B1 VH with P54K, A59G
VL: B1 VL
notes: paTCE with PSMA.5; also called AC3412; A56G
B5: CD3.77 (bispecific antibody, V domains shown)
VH: B1 VH with P54K, N56E
VL: B1 VL
notes: paTCE with PSMA.5; also called AC3406; N53E
B6: CD3.72 (bispecific antibody, V domains shown)
VH: B1 VH with P54K, Y55K
VL: B1 VL
notes: paTCE with PSMA.5; also called AC3401; Y52cK
B7: CD3.78 (bispecific antibody, V domains shown)
VH: B1 VH with P54K, N57D
VL: B1 VL
notes: paTCE with PSMA.5; also called AC3407; N54D
B8: CD3.79 (bispecific antibody, V domains shown)
VH: B1 VH with P54K, N57E
VL: B1 VL
notes: paTCE with PSMA.5; also called AC3408; N54E
B9: CD3.71 (bispecific antibody, V domains shown)
VH: B1 VH with P54K, Y55G
VL: B1 VL
notes: paTCE with PSMA.5; also called AC3400; Y52cG
B10: CD3.86 (bispecific antibody, V domains shown)
VH: B1 VH with P54K, Y61E
VL: B1 VL
notes: paTCE with PSMA.5; also called AC3415; Y58E
B11: CD3.73 (bispecific antibody, V domains shown)
VH: B1 VH with P54K, Y55P
VL: B1 VL
notes: paTCE with PSMA.5; also called AC3402; Y52cP
B12: CD3.69 (bispecific antibody, V domains shown)
VH: B1 VH with P54K, Y55A
VL: B1 VL
notes: paTCE with PSMA.5; also called AC3398; Y52cA
B13: CD3.75 (bispecific antibody, V domains shown)
VH: B1 VH with P54K, Y55W
VL: B1 VL
notes: paTCE with PSMA.5; also called AC3404; Y52cW
B14: CD3.80 (bispecific antibody, V domains shown)
VH: B1 VH with P54K, Y58G
VL: B1 VL
notes: paTCE with PSMA.5; also called AC3409; Y55G
B15: CD3.81 (bispecific antibody, V domains shown)
VH: B1 VH with P54K, Y58F
VL: B1 VL
notes: paTCE with PSMA.5; also called AC3410; Y55F
B16: CD3.74 (bispecific antibody, V domains shown)
VH: B1 VH with P54K, Y55T
VL: B1 VL
notes: paTCE with PSMA.5; also called AC3403; Y52cT
B17: CD3.82 (bispecific antibody, V domains shown)
VH: B1 VH with P54K, Y58W
VL: B1 VL
notes: paTCE with PSMA.5; also called AC3411; Y55W
B18: CD3.70 (bispecific antibody, V domains shown)
VH: B1 VH with P54K, Y55R
VL: B1 VL
notes: paTCE with PSMA.5; also called AC3399; Y52cR

biological target: T1, human CD3 epsilon (human, UniProt P07766 23-126, limits assumed); experiment: Octet, crude lysate
T1 construct: also called huCD3e
Text: To achieve this, Pool 1 was created, which included 74 paTCE molecules, each containing PSMA.5 and one of the 74 CD3.23 mutation variants. Single mutations were chosen based on analyses including CD3.23 PTE score analysis (using internal PTE algorithm v12) and structural analysis. Structural considerations included: possible contact disruption, anticipated steric clashes, side chain charge maintenance and possible pockets filling. Stability and affinity of the individually expressed molecules in the form of crude lysate was evaluated by Octet (ForteBio).

T1 sequence (P07766 23-126 limits assumed): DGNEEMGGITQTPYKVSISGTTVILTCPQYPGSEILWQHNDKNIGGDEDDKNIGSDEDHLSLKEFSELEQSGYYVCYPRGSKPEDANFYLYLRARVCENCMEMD

Row | Binder | Kd [nM]
1 | B1 | 51
2 | B2 | 939
3 | B3 | 10.7
4 | B4 | 8.2
5 | B5 | 575
6 | B6 | 5.1
7 | B7 | 7.4
8 | B8 | 8.3
9 | B9 | 20.1
10 | B10 | 183
11 | B11 | 33.1
12 | B12 | 11.5
13 | B13 | 10.5
14 | B14 | 11.3
15 | B15 | 6.1
16 | B16 | 11.1
17 | B17 | 7.8
18 | B18 | 3.8
